Measured values as given in patent publication US20220119534A1 (DRAGONFLY THERAPEUTICS, published 2022).
“And” between values parts separate entries of the source, which are not always exact repeats. Equal entries are not always repeated.

Assays:
[1] = molecular target: T1, Human CD16a V158 (FcγRIIIa V158) (human, UniProt P08637 17-208, biotinylated); assay: SPR; after low pH hold
T1 construct: Bought recombinant receptor; also called hCD16aV; hFcγRIIIa V158

[2] = molecular target: T2, mFc-hNKG2D (recombinant mFc-tagged human NKG2D dimer) (human, UniProt P26718 73-216); assay: SPR; after low pH hold
T2 construct: extracellular domain; Made in house; not shown: mouse Fc tag
T2 sequence (looked up): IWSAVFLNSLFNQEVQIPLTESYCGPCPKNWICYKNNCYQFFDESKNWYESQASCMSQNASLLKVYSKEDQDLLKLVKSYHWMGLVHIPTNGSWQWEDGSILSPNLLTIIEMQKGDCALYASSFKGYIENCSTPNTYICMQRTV

[3] = molecular target: T2, mFc-hNKG2D (recombinant mFc-tagged …); assay: SPR 37C, steady state fit, average
[4] = molecular target: T3, Human CD16a F158 (FcγRIIIa F158) (human, UniProt P08637 17-208, biotinylated); assay: SPR 25C, receptor captured, steady-state fit
T3 construct: Bought recombinant receptor; also called hFcγRIIIa F158

[5] = molecular target: T1, Human CD16a V158 (FcγRIIIa V158); assay: SPR; control sample
[6] = molecular target: T2, mFc-hNKG2D (recombinant mFc-tagged …); assay: SPR; control sample
Human CD32b (FcγRIIb) = molecular target: T4, Human CD32b (FcγRIIb) (human, UniProt P31994 46-217, limits assumed, biotinylated); assay: SPR, summary of FcγR affinities
T4 construct: Bought recombinant receptor; also called hFcγRIIb; CD32b (FcγR2b)
T4 sequence (looked up): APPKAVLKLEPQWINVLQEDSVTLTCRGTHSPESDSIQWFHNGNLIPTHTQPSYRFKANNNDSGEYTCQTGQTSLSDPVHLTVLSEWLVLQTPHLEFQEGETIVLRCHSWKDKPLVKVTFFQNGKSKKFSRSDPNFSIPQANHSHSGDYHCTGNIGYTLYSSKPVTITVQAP

[7] = molecular target: T3, Human CD16a F158 (FcγRIIIa F158); assay: SPR, summary of FcγR affinities
Human CD64 (FcγRI) = molecular target: T5, Human CD64 (FcγRI) (human, UniProt P12314 16-288, biotinylated); assay: SPR, summary of FcγR affinities
T5 construct: Bought recombinant receptor; also called hFcγRI; Human FcγRI

[8] = molecular target: T6, Human CD32a H131 (FcγRIIa H131) (human, UniProt P12318 36-218, limits assumed, biotinylated); assay: SPR, summary of FcγR affinities
T6 construct: Bought recombinant receptor; also called hFcγRIIa H131; FcgRIIa H131
T6 sequence (looked up): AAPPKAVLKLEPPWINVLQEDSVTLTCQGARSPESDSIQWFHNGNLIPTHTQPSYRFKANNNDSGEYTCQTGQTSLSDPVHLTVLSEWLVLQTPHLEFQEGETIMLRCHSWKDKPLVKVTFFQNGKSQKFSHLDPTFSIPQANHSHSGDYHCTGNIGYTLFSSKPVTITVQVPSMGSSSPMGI

T1 sequence (P08637 17-208 F176V limits assumed): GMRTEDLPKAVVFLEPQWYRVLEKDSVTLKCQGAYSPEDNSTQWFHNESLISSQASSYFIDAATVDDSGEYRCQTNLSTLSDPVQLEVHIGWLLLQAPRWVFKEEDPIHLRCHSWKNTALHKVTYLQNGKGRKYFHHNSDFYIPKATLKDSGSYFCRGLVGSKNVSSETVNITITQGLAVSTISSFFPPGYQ
T3 sequence (P08637 17-208 limits assumed): as the sequence (P08637 17-208 F176V limits assumed) above, with V160F counted along it
T5 sequence (P12314 16-288 limits assumed): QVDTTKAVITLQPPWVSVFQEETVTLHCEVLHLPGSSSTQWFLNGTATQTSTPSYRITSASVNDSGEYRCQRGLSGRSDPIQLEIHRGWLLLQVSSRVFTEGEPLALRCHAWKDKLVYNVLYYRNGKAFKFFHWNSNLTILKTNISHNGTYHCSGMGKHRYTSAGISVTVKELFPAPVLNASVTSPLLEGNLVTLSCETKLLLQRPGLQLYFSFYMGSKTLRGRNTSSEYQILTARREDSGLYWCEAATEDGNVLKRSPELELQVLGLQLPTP

B1: AB0089 TriNKET (bispecific antibody, human IgG1, kappa)
chain: QLQLQESGPGLVKPSETLSLTCTVSGFSLTNYGLHWIRQPPGKCLEWIGVIWVGGATDYNPSLKSRVTISVDTSKNQFSLKLSSVQAADTAVYYCAKGDYGDTLDYWGQGTLVTVSSGGGGSGGGGSGGGGSGGGGSDIQMTQSPSSLSASVGDRVTITCHASQNINFWLSWYQQKPGKAPKLLIYEASNLHTGVPSRFSGSGSGTDFTLTISSLQPEDFATYYCQQSHSYPLTFGCGTKLEIKGSDKTHTCPPCPAPELLGGPSVFLFPPKPKDTLMISRTPEVTCVVVDVSHEDPEVKFNWYVDGVEVHNAKTKPREEQYNSTYRVVSVLTVLHQDWLNGKEYKCKVSNKALPAPIEKTISKAKGQPREPRVYTLPPCRDELTKNQVSLTCLVKGFYPSDIAVEWESNGQPENNYKTTPPVLVSDGSFTLYSKLTVDKSRWQQGNVFSCSVMHEALHNHYTQKSLSLSPG
heavy: EVQLVESGGGLVKPGGSLRLSCAASGFTFSSYSMNWVRQAPGKGLEWVSSISSSSSYIYYADSVKGRFTISRDNAKNSLYLQMNSLRAEDTAVYYCARGAPIGAAAGWFDPWGQGTLVTVSSASTKGPSVFPLAPSSKSTSGGTAALGCLVKDYFPEPVTVSWNSGALTSGVHTFPAVLQSSGLYSLSSVVTVPSSSLGTQTYICNVNHKPSNTKVDKKVEPKSCDKTHTCPPCPAPELLGGPSVFLFPPKPKDTLMISRTPEVTCVVVDVSHEDPEVKFNWYVDGVEVHNAKTKPREEQYNSTYRVVSVLTVLHQDWLNGKEYKCKVSNKALPAPIEKTISKAKGQPREPQVCTLPPSRDELTENQVSLTCLVKGFYPSDIAVEWESNGQPENNYKTTPPVLDSDGSFFLYSWLTVDKSRWQQGNVFSCSVMHEALHNHYTQKSLSLSPG
light: DIQMTQSPSSVSASVGDRVTITCRASQGISSWLAWYQQKPGKAPKLLIYAASSLQSGVPSRFSGSGSGTDFTLTISSLQPEDFATYYCQQGVSFPRTFGGGTKVEIKRTVAAPSVFIFPPSDEQLKSGTASVVCLLNNFYPREAKVQWKVDNALQSGNSQESVTEQDSKDSTYSLSSTLTLSKADYEKHKVYACEVTHQGLSSPVTKSFNRGEC
notes: F3' format heterodimer of three chains; human IgG1 Fc with EW-RVT and Y349C/S354C mutations; also called AB0089 Lot AB0089-002; CLEC12A TriNKET AB0089
Kd [1]: 314 nM
koff [1]: 0.0274 s⁻¹
kon [1]: 87300 M⁻¹ s⁻¹
Kd [2]: 941 nM
koff [2]: 0.15 s⁻¹
kon [2]: 159000 M⁻¹ s⁻¹
Kd [3]: 884 nM
Kd [4]: 1250 nM and 1280 nM and 1300 nM
Kd [5]: 333 nM
koff [5]: 0.0277 s⁻¹
kon [5]: 83100 M⁻¹ s⁻¹
Kd [6]: 881 nM
koff [6]: 0.143 s⁻¹
kon [6]: 162000 M⁻¹ s⁻¹
Kd (Human CD32b (FcγRIIb)): 6.27 µM
Kd [7]: 1270 nM
Kd (Human CD64 (FcγRI)): 5.1 nM
Kd [8]: 900 nM
